Assay [1] concerns the target delta opioid receptor (δOR) on HCT-116/δOR cells (UniProt P41143). Description: TRF competitive binding against Eu-labeled DPLCE on HCT116/δOR cells.
Assay [2] has the same target. Description: LTRF competitive binding against Eu-DTPA-DPLCE (5 nM) on whole HCT-116/δOR cells; average of three experiments.

What is called Ki is the equilibrium dissociation constant of an inhibitor or competing ligand from its target. Low readings indicate higher affinity, high ones lower affinity. On to “Dmt-Tic-Lys(Cy5)-OH (Cy5 labeled ligand 1) (peptide)”, for which the Ki in assay [1] was determined as 3 nM.
Take “Dmt-Tic-IR800 (Compound 1 of Scheme 4) (peptide)”: the Ki in assay [2] was 1.43 nM.
In assay [1], “Dmt-Tic-Lys(Mpr)-OH (ligand 6) (peptide)” yielded a Ki of 2.5 nM.

The values are drawn from patent US20160051704A1, “MOLECULAR IMAGING PROBES FOR LUNG CANCER INTRAOPERATIVE GUIDANCE” (H. Lee Moffitt Cancer Center and Research Institute, Inc., priority 2013, published 2016).
